Biological target: T1, MAF1 (His-tagged, Fitzgerald 80R-1955) (UniProt Q9H063 1-256)
T1 sequence: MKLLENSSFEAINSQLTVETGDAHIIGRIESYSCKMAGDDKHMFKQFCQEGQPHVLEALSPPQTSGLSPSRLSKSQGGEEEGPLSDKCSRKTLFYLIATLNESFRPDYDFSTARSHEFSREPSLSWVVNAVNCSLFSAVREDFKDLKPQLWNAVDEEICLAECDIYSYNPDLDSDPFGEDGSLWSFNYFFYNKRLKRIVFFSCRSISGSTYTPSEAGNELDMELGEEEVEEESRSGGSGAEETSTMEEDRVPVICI
Assay: colorimetric DNA-protein binding assay (ab117139); 40 ng biotin probe, 500 ng MAF1; IP-qPCR: 20 mM HEPES pH 7.6, 150 mM NaCl, 0.25 mM EDTA, 10% glycerol, 0.2% NP40, 1 mM DTT, 200 ng BSA, 50 ul, 20 ng DNA, 400 ng MAF1, 4 C/ice; colorimetric: Abcam ab117139 kit conditions
Settings: protein: commercial; tags: His6; label: 5' biotin (probe)

B1: p21 A-box probe (CDKN1A MIR3) (dsDNA)
DNA 1: AATCAACAACTTTGTATACTTAAGTTCAGTGGACCTCAATTTCCTCATCTGTGAAATAAA
DNA 2: TTTATTTCACAGATGAGGAAATTGAGGTCCACTGAACTTAAGTATACAAAGTTGTTGATT
- binding result: binds

From paper PMC4480132, “MAF1 represses CDKN1A through a Pol III-dependent mechanism”
